# Measured values taken from patent US20210292392A1.
# Target: full length spike (S) protein of SARS-CoV-2 (SARS-CoV-2) (UniProt P0DTC2)
# Assay: cell-based or functional assay
substance,measurement,value
VRC01 (antibody),Neutralizing activity (%) Mean at 0.0228624 µg/ml,13.2%
same,Neutralizing activity (%) Mean at 0.0685871 µg/ml,10.4%
same,Neutralizing activity (%) Mean at 0.2057613 µg/ml,14.4%
same,Neutralizing activity (%) Mean at 0.6172839 µg/ml,24.9%
same,Neutralizing activity (%) Mean at 1.851852 µg/ml,8.1%
same,Neutralizing activity (%) Mean at 5.555555 µg/ml,27.1%
same,Neutralizing activity (%) Mean at 16.66667 µg/ml,26.6%
same,Neutralizing activity (%) Mean at 50 µg/ml,33.9%
